In US20120087931A1:
Where “and” joins values, the source holds several entries; their conditions need not be identical. Equal entries are not always repeated. Values belong to the substance of their own block, whether it stands above or below them.

Assays:
[1] = molecular target: monoclonal antibody cmHsp70.1 as produced by hybridoma cmHsp70.1 (DSM ACC2629); assay: flow cytometry at 4 C, CT26 cells, cmHsp70.1-FITC 5 µg/mL plus TKD 12.5 µg/mL
[2] = molecular target: monoclonal antibody cmHsp70.1 as produced by hybridoma cmHsp70.1 (DSM ACC2629); assay: flow cytometry at 4 C, CT26 cells, cmHsp70.1-FITC 5 µg/mL plus TKD 25 µg/mL
[3] = molecular target: theta antigen on BW mouse tumor cells; assay: staining of BW mouse cells transfected with theta (method not given)
[4] = molecular target: membrane Hsp70 on mouse tumor cells (mouse) (UniProt Q61696); assay: flow cytometry, CT26 cells used as ADCC targets (FIG. 9B)
UniProt Q61696, sequence (Q61696 2-641): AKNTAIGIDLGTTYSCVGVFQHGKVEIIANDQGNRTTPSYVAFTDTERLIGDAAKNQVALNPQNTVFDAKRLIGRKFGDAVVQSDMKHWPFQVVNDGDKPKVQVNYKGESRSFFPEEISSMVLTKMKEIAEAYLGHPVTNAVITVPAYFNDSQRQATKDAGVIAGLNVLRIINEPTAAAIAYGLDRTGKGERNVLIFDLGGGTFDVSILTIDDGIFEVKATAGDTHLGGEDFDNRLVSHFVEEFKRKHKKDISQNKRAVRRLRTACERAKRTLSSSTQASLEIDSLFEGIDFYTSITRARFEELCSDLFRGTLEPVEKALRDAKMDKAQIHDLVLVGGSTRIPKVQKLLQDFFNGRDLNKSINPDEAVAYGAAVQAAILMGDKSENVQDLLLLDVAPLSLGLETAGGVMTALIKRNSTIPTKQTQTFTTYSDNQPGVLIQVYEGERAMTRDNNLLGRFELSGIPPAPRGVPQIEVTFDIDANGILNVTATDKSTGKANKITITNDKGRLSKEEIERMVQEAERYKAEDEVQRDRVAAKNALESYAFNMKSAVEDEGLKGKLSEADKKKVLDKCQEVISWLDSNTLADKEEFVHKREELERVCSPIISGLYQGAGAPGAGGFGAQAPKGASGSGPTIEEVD

[5] = molecular target: purified human Hsp70 protein (human) (UniProt P0DMV8); assay: SPR, Biacore X, 25 C, Hsp70 0.78-50 nM, global fit to a 1:1 model
UniProt P0DMV8, sequence (P0DMV8 whole entry): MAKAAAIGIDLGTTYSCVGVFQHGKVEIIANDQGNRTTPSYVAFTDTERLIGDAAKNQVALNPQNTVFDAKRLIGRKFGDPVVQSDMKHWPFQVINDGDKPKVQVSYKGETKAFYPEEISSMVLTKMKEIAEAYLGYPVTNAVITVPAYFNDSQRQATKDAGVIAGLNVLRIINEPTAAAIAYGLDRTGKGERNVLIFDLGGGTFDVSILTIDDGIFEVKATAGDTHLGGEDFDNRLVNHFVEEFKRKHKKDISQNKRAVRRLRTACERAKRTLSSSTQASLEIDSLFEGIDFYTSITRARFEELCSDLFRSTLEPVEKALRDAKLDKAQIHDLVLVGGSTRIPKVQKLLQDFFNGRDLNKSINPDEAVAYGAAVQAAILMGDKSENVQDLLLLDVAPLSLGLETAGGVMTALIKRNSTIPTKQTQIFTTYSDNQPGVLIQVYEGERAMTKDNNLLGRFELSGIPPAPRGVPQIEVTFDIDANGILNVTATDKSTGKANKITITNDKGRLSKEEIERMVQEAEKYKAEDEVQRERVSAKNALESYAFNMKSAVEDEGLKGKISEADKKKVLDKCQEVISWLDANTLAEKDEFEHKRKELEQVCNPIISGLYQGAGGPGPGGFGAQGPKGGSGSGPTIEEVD

[6] = molecular target: membrane Hsp70 on mouse tumor cells (mouse) (UniProt Q61696); assay: flow cytometry at 4 C, viable A20 (BALB/c) B cell lymphoma cells (counted as membrane Hsp70 negative, limit 15%)
[7] = molecular target: membrane Hsp70 on mouse tumor cells (mouse) (UniProt Q61696); assay: flow cytometry at 4 C, CT26 cells, cmHsp70.1-FITC 5 µg/mL without peptide
[8] = molecular target: membrane Hsp70 on mouse tumor cells (mouse) (UniProt Q61696); assay: flow cytometry at 4 C, viable ADJ (BALB/c) plasmocytoma cells
[9] = molecular target: membrane Hsp70 on mouse tumor cells (mouse) (UniProt Q61696); assay: flow cytometry at 4 C, viable CT26 (BALB/c) colon carcinoma cells
[10] = molecular target: membrane Hsp70 on mouse tumor cells (mouse) (UniProt Q61696); assay: cell-based or functional assay
[11] = molecular target: membrane Hsp70 on mouse tumor cells (mouse) (UniProt Q61696); assay: flow cytometry, CT26 cells from tissue culture; antibody not named
[12] = molecular target: membrane Hsp70 on mouse tumor cells (mouse) (UniProt Q61696); assay: flow cytometry at 4 C, viable 1048 (BALB/c) pancreatic carcinoma cells (counted as membrane Hsp70 negative, limit 15%)
[13] = molecular target: membrane Hsp70 on mouse tumor cells (mouse) (UniProt Q61696); assay: flow cytometry, single cell suspensions of CT26 tumors from mice on day 14; antibody not named
[14] = molecular target: membrane Hsp70 on mouse tumor cells (mouse) (UniProt Q61696); assay: flow cytometry at 4 C, viable MOS162 (C3H) osteosarcoma cells
[15] = molecular target: membrane Hsp70 on mouse tumor cells (mouse) (UniProt Q61696); assay: flow cytometry, cultured CT26 cells; antibody not named
[16] = molecular target: membrane Hsp70 on mouse tumor cells (mouse) (UniProt Q61696); assay: flow cytometry, CT26 cells used as ADCC targets (FIG. 9A)
[17] = molecular target: membrane Hsp70 on mouse tumor cells (mouse) (UniProt Q61696); assay: flow cytometry, cmHsp70.1-FITC on viable CT26 mouse colon carcinoma cells; IgG1 isotype control as white histogram
[18] = molecular target: membrane Hsp70 on mouse tumor cells (mouse) (UniProt Q61696); assay: flow cytometry at 4 C, viable B16/F10 (C57/Bl6) melanoma cells
[19] = molecular target: membrane Hsp70 on mouse tumor cells (mouse) (UniProt Q61696); assay: flow cytometry, CT26 cells used as ADCC targets (FIG. 8)
[20] = molecular target: membrane Hsp70 on mouse tumor cells (mouse) (UniProt Q61696); assay: flow cytometry, single-cell suspensions of CT26 tumors from mice on day 14; antibody not named

membrane Hsp70+ cells (%) left in the presence of the peptide [1]: 44%
membrane Hsp70+ cells (%) left in the presence of the peptide [2]: < 15%
Substance: 14-mer Hsp70 peptide TKD (…)

positive cells (%) [3]: 56%
Substance: IgG1 O×7.11 mAb (antibody)

cmHsp70.1+ cells (%) [4]: 61%
Kd [5]: 5.4 nM
koff [5]: 0.000379 s⁻¹
kon [5]: 69900 M⁻¹ s⁻¹
membrane Hsp70+ cells (%) [7]: 59% and 60%
ADCC against CT26 tumor cells (4 h 51Cr release, unstimulated mouse spleen cells) [10]: 1.4 µg/mL
Hsp70 membrane positive cells (%) [11]: 56.2%
Hsp70 membrane positive cells (%) [13]: 79.8%
membrane Hsp70+ cells (%) [15]: 46.2%
membrane Hsp70+ cells (%) [16]: 60%
Hsp70 membrane-positive cells (%) [19]: 55%
membrane Hsp70+ cells (%) [20]: 69.8%
Substance: monoclonal antibody cmHsp70.1 as produced by hybridoma cmHsp70.1 (DSM ACC2629)
Hsp70 membrane-positive cells (%) [6]: 5%
Hsp70 membrane-positive cells (%) [8]: 45%
Hsp70 membrane-positive cells (%) [9]: 44%
Hsp70 membrane-positive cells (%) [12]: 12%
Hsp70 membrane-positive cells (%) [14]: 70%
positive cells in the marker gate [17]: 59%
Hsp70 membrane-positive cells (%) [18]: 97%
